Data published in paper PMC8350387, “Solution Structure of the dATP-Inactivated Class I Ribonucleotide Reductase From Leeuwenhoekiella blandensis by SAXS and Cryo-Electron Microscopy” (Frontiers in Molecular Biosciences, 2021).

B1: Leeuwenhoekiella blandensis class I ribonucleotide reductase catalytic subunit NrdA (LbNrdA) (enzyme, UniProt A3XHF8 1-600, looked up)
chain: MRENTTKLENSTETNVQHTKDNDLLKARRDALQDATEKNTDEPSFDWLTEHSRSFLAAGYLSEGVSAEERIREIADRAEEILRMPGFSDKFYKYMGEGYFSLASPVWSNFGKKRGLPISCFGSHIDDDMGNILYTQSEVGMMSKLGGGTSGYFGKIRHRGAAVKNNGYASGAVHIMQLFDKMVDVVSQGSVRRGRFSPYLPISHPDIKEFLEIGTEGNSIQQLTHGVTVDSTWMQEMIDGDTDKREVWAKVLQRRGEMGYPYIFYTDNANNGKPDVYKDKGHDIYASNLCTEIMLPSSDEWSFVCVLSSINVLHYDKWKNTDAVETMVCFLDAVLTEFIDKLEEYRDSDNRDHRQTFMFMERAYNFAKSNRALGLGVLGWHSLLQSKRHAFDSQEAYDLNSEIFREIKQRSYKASEELAEKFGEPETLKGYGRRNATLNAIAPTTSSAFILGQVSQGIEPIWSNVYVKDIAKIKTTIKNPFLEELFEEKGMNTPEVWRSVRDNDGSVQHLEFLTEQEKDVFKTYAEIDQMAIIYQAANRQNHIDQGQSINLLVHPDMPIKEINKIHITAWKLGLKSLYYQHSMNAAQKFKQKKECVSCEA
notes: NrdA (α subunit, subclass NrdAi, lacks an ATP-cone) of Leeuwenhoekiella blandensis; the homology model covers residues 40-596 and lacks 43 terminal residues per monomer; Dimer (α2) with dATP by SAXS; also called α2 (dimer); source: purified as described previously (Rozman Grinberg et al., 2018a); not shown: His6, N-terminal, kept

Tests used:
[1] = biological target: Leeuwenhoekiella blandensis class I ribonucleotide reductase radical-generating subunit NrdB (LbNrdB) (Leeuwenhoekiella blandensis); test: cryo-EM structure; LbNrdAB complex formed with dATP, isolated on Superdex 200 with on-column 0.05% glutaraldehyde cross-linking in HEPES buffer; single particle reconstruction at 8.2 Å, no symmetry imposed
[2] = biological target: Leeuwenhoekiella blandensis class I ribonucleotide reductase radical-generating subunit NrdB (LbNrdB) (Leeuwenhoekiella blandensis); test: SEC-SAXS; LbNrdA and LbNrdB mixed at 85 μM each with 1 mM dATP and 2 mM magnesium acetate, 5 min, on Superdex S200; SEC buffer 50 mM Tris-HCl pH 7.6, 300 mM NaCl, 2 mM DTT, 1 mM Mg acetate, 0.4 mM dATP, 5% glycerol
[3] = biological target: Leeuwenhoekiella blandensis class I ribonucleotide reductase radical-generating subunit NrdB (LbNrdB) (Leeuwenhoekiella blandensis); test: SEC-SAXS; LbNrdB alone, 350 μL of 11 mg/ml with 1 mM dATP loaded on Superdex S200; SEC buffer 50 mM Tris-HCl pH 7.6, 300 mM NaCl, 2 mM DTT, 1 mM Mg acetate, 0.4 mM dATP, 5% glycerol
[4] = biological target: the molecule itself; test: SAXS; batch mode, LbNrdA 0.625-5 mg/ml in 50 mM Tris-HCl pH 7.6, 300 mM NaCl, 2 mM DTT, 5% glycerol, 2 mM magnesium acetate, 1 mM dATP; 10 °C

| Molecule | stoichiometry N [1] | stoichiometry N [2] | stoichiometry N [3] | stoichiometry N [4] | stoichiometry N (LbNrdA per LbNrdB (α4β4)) [2] |
| --- | --- | --- | --- | --- | --- |
| Leeuwenhoekiella blandensis class I ribonucleotide reductase radical-generating subunit NrdB (LbNrdB) (enzyme) | 4 | 4 | 4 |  |  |
| B1 |  |  |  | 2 | 1 |
